Data from article doi:10.1101/2024.03.04.583391 (bioRxiv, 2024).

Molecular target: T1, DIP-β-G, recombinant protein for SPR (Drosophila melanogaster)
T1 chain: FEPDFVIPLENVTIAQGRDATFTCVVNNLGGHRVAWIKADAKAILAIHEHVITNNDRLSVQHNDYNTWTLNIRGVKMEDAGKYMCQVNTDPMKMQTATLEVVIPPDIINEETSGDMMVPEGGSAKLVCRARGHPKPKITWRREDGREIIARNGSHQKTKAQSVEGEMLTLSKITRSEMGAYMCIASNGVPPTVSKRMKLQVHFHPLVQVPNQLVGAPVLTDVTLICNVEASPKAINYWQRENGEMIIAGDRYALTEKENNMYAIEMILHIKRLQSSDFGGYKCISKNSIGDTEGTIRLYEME
Test: SPR

Kd: 5.76 µM
B1: Dpr10-A, recombinant protein for SPR (domain or fragment, Drosophila melanogaster)
chain: WNEPYFDLTMPRNITSLVGKSAYLGCRVKHLGNKTVAWIRHRDLHILTVGTYTYTTDQRFQTSYHRDIDEWTLQIKWAQQRDAGVYECQISTQPVRSYSVNLNIVDLIDAETSDIMQQYYNDDAFYIAENRVYQSSNDEFAGMFGPIQTVAVPTATILGGPDLYVDKGSTINLTCIIKFSPEPPTHIFWYHQDKVLSEETSGGRLKFKTIKSEETKSILLIYDADLLHSGKYSCYPSNTEIASIRVHVLQGE
